Results on one substance are retold here after IntAct's records for PubMed 12620186.

In the assay the target is wipf1_human WIPF1 (UniProt O43516).
Sequence of wipf1_human WIPF1 (O43516 whole entry): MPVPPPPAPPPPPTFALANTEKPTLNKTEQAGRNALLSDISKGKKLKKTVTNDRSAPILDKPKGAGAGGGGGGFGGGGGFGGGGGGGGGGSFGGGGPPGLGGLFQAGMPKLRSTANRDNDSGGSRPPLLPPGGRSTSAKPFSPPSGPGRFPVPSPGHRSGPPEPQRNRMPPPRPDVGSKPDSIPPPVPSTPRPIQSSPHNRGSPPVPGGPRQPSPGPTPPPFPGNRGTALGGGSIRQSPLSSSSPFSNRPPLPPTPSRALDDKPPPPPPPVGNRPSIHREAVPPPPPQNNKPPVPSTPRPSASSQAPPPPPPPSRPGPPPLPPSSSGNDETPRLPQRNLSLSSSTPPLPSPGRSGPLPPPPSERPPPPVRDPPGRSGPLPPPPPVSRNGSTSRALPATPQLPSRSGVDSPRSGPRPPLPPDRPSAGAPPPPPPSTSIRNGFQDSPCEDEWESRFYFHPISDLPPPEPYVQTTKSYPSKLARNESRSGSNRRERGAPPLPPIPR

Sequence of Src substrate cortactin (Mus musculus), Q60598 W526K (Q60598 whole entry W526K): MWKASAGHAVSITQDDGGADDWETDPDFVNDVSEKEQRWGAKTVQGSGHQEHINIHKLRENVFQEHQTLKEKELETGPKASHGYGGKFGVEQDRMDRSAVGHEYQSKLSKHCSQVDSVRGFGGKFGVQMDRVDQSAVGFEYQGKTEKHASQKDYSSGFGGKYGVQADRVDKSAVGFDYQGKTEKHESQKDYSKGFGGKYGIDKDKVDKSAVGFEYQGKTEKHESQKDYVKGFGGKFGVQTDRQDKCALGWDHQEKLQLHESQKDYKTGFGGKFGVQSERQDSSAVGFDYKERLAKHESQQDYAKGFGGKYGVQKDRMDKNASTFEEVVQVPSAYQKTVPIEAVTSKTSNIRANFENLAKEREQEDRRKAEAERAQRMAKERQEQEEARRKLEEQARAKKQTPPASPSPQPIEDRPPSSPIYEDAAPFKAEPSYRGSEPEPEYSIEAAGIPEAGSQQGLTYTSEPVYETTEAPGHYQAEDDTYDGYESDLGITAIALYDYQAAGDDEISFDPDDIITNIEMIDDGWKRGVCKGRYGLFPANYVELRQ

Take “Src substrate cortactin (Mus musculus), Q60598 W526K”: the “effect of a mutation on the interaction” value is recorded as “disrupting interaction”.
